Key:
[1] = biological target: HLA-B*15:01; assay: IEDB peptide-MHC binding, purified MHC/competitive/radioactivity; filed as Kd, often an IC50 or EC50 that approximates it; ≥ and ≤ were set here for values at or beyond the usual limits of such assays
[2] = biological target: HLA-A*23:01; assay: as above
[3] = biological target: HLA-B*40:01; assay: as above
[4] = biological target: HLA-B*44:03; assay: as above
[5] = biological target: HLA-B*40:02; assay: as above
[6] = biological target: HLA-B*18:01; assay: as above
[7] = biological target: HLA-B*44:02; assay: as above
[8] = biological target: HLA-B*45:01; assay: as above
[9] = biological target: HLA-A*30:01; assay: as above; conditions: source organism: Dengue virus 1 Brazil/97-11/1997
[10] = biological target: HLA-B*35:01; assay: as above
[11] = biological target: HLA-B*53:01; assay: as above
[12] = biological target: HLA-A*02:06; assay: as above; conditions: source organism: Dengue virus 3 Martinique/1243/1999
[13] = biological target: HLA-A*03:01; assay: IEDB peptide-MHC binding, purified MHC/competitive/fluorescence; filed as Kd, often an IC50 or EC50 that approximates it; ≥ and ≤ were set here for values at or beyond the usual limits of such assays
[14] = biological target: HLA-B*51:01; assay: IEDB peptide-MHC binding, purified MHC/competitive/radioactivity; filed as Kd, often an IC50 or EC50 that approximates it; ≥ and ≤ were set here for values at or beyond the usual limits of such assays
[15] = biological target: HLA-A*24:02; assay: as above; conditions: source organism: Dengue virus 3 Martinique/1243/1999
[16] = biological target: HLA-A*26:01; assay: as above
[17] = biological target: HLA-B*15:01; assay: IEDB peptide-MHC binding, purified MHC/competitive/fluorescence; filed as Kd, often an IC50 or EC50 that approximates it; ≥ and ≤ were set here for values at or beyond the usual limits of such assays; conditions: source organism: Bacillus anthracis str. A0488
[18] = biological target: HLA-A*26:01; assay: IEDB peptide-MHC binding, purified MHC/direct/fluorescence; filed as Kd, often an IC50 or EC50 that approximates it; ≥ and ≤ were set here for values at or beyond the usual limits of such assays; conditions: source organism: Mycobacterium tuberculosis
[19] = biological target: HLA-A*32:01; assay: IEDB peptide-MHC binding, purified MHC/competitive/radioactivity; filed as Kd, often an IC50 or EC50 that approximates it; ≥ and ≤ were set here for values at or beyond the usual limits of such assays
[20] = source organism: Dengue virus 4 Dominica/814669/1981
[21] = source organism: SARS coronavirus Tor2
[22] = source organism: Dengue virus 1 Brazil/97-11/1997
[23] = source organism: Dengue virus 4 Philippines/H241/1956
[24] = source organism: Dengue virus 3 Martinique/1243/1999
[25] = source organism: Mammarenavirus guanaritoense
[26] = source organism: Mammarenavirus juninense
[27] = source organism: Mammarenavirus brazilense
[28] = source organism: Lymphocytic choriomeningitis virus (strain WE)
[29] = source organism: Lymphocytic choriomeningitis virus (strain Armstrong)
[30] = source organism: Dengue virus 2 Jamaica/1409/1983
[31] = source organism: Mammarenavirus machupoense
[32] = source organism: Vaccinia virus WR

Q: How did the Kd [1, 20] turn out when CLIPTVMAF was run?
A: The Kd was 0.64 nM.

Q: And the Kd [2, 20]?
A: Its Kd is 81.9 nM.

Q: Which results are given for VEAVMYMGTL?
A: Kd [3, 21]: 22.2 nM; Kd [4, 21]: 516 nM; Kd [5, 21]: 33.8 nM; Kd [6, 21]: 7240 nM; Kd [7, 21]: 1540 nM; Kd [8, 21]: 508 nM

Q: How did the Kd [1, 22] turn out when KMRPMFAVG was run?
A: The Kd was 34.6 nM.

Q: And the Kd [9]?
A: The Kd was 14.7 nM.

Q: For MALKDFKEF, which Kd [2, 23] is on record?
A: Its Kd is 154 nM.

Q: And the Kd [10, 23]?
A: The Kd was 77 nM.

Q: What about the Kd [11, 23] of the same sequence?
A: Its Kd is 139 nM.

Q: Which results are given for AQMWSLMYF?
A: Kd [1, 24]: 0.33 nM; Kd [12]: 12.8 nM

Q: SEDGLDGFDW was tested. Which Kd [3, 25] did it give?
A: The Kd was 14600 nM.

Q: What about the Kd [4, 25] of the same sequence?
A: The Kd was 21.2 nM.

Q: And the Kd [5, 25]?
A: The Kd was 14400 nM.

Q: What about the Kd [6, 25] of the same sequence?
A: Its Kd is ≥ 35300 nM.

Q: What about the Kd [7, 25] of the same sequence?
A: The Kd was 21.3 nM.

Q: What about the Kd [8, 25] of the same sequence?
A: The Kd was ≥ 56700 nM.

Q: Which Kd [3, 26] does the source give for HDLPLLCNL here?
A: The Kd was ≥ 38100 nM.

Q: What about the Kd [4, 26] of the same sequence?
A: Its Kd is 4110 nM.

Q: And the Kd [5, 26]?
A: The Kd was 15.2 nM.

Q: And the Kd [6, 26]?
A: Its Kd is 12200 nM.

Q: And the Kd [7, 26]?
A: Its Kd is 1490 nM.

Q: What about the Kd [8, 26] of the same sequence?
A: The Kd was ≥ 77700 nM.

Q: Which results are given for PELKKPITW?
A: Kd [3, 27]: ≥ 76100 nM; Kd [4, 27]: 14100 nM; Kd [5, 27]: ≥ 37100 nM; Kd [6, 27]: ≥ 77500 nM; Kd [7, 27]: ≥ 42800 nM; Kd [8, 27]: ≥ 77700 nM

Q: SQHNYRPGYF was tested. Which Kd [1, 22] did it give?
A: Its Kd is 9.37 nM.

Q: For GETPIAYRNV, which Kd [3, 21] is on record?
A: The Kd was 1650 nM.

Q: What about the Kd [4, 21] of the same sequence?
A: The Kd was ≥ 22700 nM.

Q: What about the Kd [5, 21] of the same sequence?
A: Its Kd is 281 nM.

Q: What about the Kd [6, 21] of the same sequence?
A: Its Kd is ≥ 59500 nM.

Q: What about the Kd [7, 21] of the same sequence?
A: Its Kd is ≥ 38100 nM.

Q: What about the Kd [8, 21] of the same sequence?
A: Its Kd is 698 nM.

Q: Which Kd [3, 21] does the source give for DEFIQRYKL here?
A: Its Kd is ≥ 23900 nM.

Q: What about the Kd [4, 21] of the same sequence?
A: Its Kd is 8800 nM.

Q: What about the Kd [5, 21] of the same sequence?
A: The Kd was 2500 nM.

Q: And the Kd [6, 21]?
A: Its Kd is 47.9 nM.

Q: What about the Kd [7, 21] of the same sequence?
A: The Kd was 15900 nM.

Q: What about the Kd [8, 21] of the same sequence?
A: The Kd was ≥ 25900 nM.

Q: Which Kd ([13]; source organism: Brucella abortus str. 2308 A) does the source give for FLWWGKWRK here?
A: Its Kd is 3.1 nM.

Q: REPTDQKQF was tested. Which Kd [3, 28] did it give?
A: Its Kd is ≥ 20400 nM.

Q: What about the Kd [4, 28] of the same sequence?
A: The Kd was 8940 nM.

Q: And the Kd [5, 28]?
A: Its Kd is 6290 nM.

Q: What about the Kd [6, 28] of the same sequence?
A: The Kd was ≥ 77500 nM.

Q: What about the Kd [7, 28] of the same sequence?
A: The Kd was 1340 nM.

Q: And the Kd [8, 28]?
A: The Kd was ≥ 77700 nM.

Q: How did the Kd [3, 29] turn out when SEISVILQEL was run?
A: Its Kd is 868 nM.

Q: What about the Kd [4, 29] of the same sequence?
A: The Kd was 240 nM.

Q: What about the Kd [5, 29] of the same sequence?
A: Its Kd is 544 nM.

Q: And the Kd [6, 29]?
A: The Kd was 10300 nM.

Q: And the Kd [7, 29]?
A: The Kd was 106 nM.

Q: What about the Kd [8, 29] of the same sequence?
A: Its Kd is 4170 nM.

Q: CLIPTAMAF was tested. Which Kd [1, 23] did it give?
A: The Kd was 9.43 nM.

Q: What about the Kd [2, 23] of the same sequence?
A: The Kd was 451 nM.

Q: Which Kd [3, 26] does the source give for AETGSQGVYM here?
A: The Kd was 3030 nM.

Q: And the Kd [4, 26]?
A: Its Kd is 1040 nM.

Q: What about the Kd [5, 26] of the same sequence?
A: The Kd was 184 nM.

Q: And the Kd [6, 26]?
A: Its Kd is ≥ 70400 nM.

Q: What about the Kd [7, 26] of the same sequence?
A: The Kd was 304 nM.

Q: And the Kd [8, 26]?
A: The Kd was 13600 nM.

Q: How did the Kd ([13]; source organism: Pixuna virus) turn out when RVYAHDAQH was run?
A: Its Kd is 30.5 nM.

Q: Which results are given for MPSMKRFRRE?
A: Kd [10, 30]: ≥ 30900 nM; Kd [14, 30]: ≥ 69600 nM; Kd [11, 30]: ≥ 20600 nM

Q: What does the source list for LPESLETLM?
A: Kd [10, 23]: 470 nM; Kd [14, 23]: 2450 nM; Kd [11, 23]: 557 nM

Q: HMIAGVFFTF was tested. Which Kd [1, 24] did it give?
A: The Kd was 1.47 nM.

Q: And the Kd [2, 24]?
A: The Kd was 28.9 nM.

Q: And the Kd [15]?
A: The Kd was 98.9 nM.

Q: What about the Kd [16, 24] of the same sequence?
A: Its Kd is ≥ 32800 nM.

Q: How did the Kd [17] turn out when RLMATKNIY was run?
A: The Kd was 136 nM.

Q: For LVIDNLYGF, which Kd [18] is on record?
A: Its Kd is 12.2 nM.

Q: Which results are given for RIKGMSYTM?
A: Kd [1, 23]: 32.2 nM; Kd [19, 23]: 37.4 nM

Q: Which Kd [3, 31] does the source give for EELSLMYEAL here?
A: Its Kd is 15400 nM.

Q: What about the Kd [4, 31] of the same sequence?
A: Its Kd is 2000 nM.

Q: And the Kd [5, 31]?
A: Its Kd is 205 nM.

Q: What about the Kd [6, 31] of the same sequence?
A: Its Kd is 1810 nM.

Q: And the Kd [7, 31]?
A: Its Kd is 1790 nM.

Q: What about the Kd [8, 31] of the same sequence?
A: The Kd was 1590 nM.

Q: MSIPATLFVW was tested. Which Kd [16, 22] did it give?
A: The Kd was 15600 nM.

Q: And the Kd [11, 22]?
A: Its Kd is 414 nM.

Q: For ATYQRTRALVR, which Kd ([13]; source organism: Influenza A virus (A/swine/Italy/1509-6/97(H1N1))) is on record?
A: Its Kd is 38.9 nM.

Q: For LLYTANFTF, which Kd [1, 32] is on record?
A: Its Kd is 2.43 nM.

Q: What about the Kd [19, 32] of the same sequence?
A: Its Kd is 6.72 nM.

Q: Which results are given for DELGNILSTY?
A: Kd [3, 31]: ≥ 69500 nM; Kd [4, 31]: 361 nM; Kd [5, 31]: 5380 nM; Kd [6, 31]: 8.62 nM; Kd [7, 31]: 1860 nM; Kd [8, 31]: ≥ 70000 nM

Q: For RLLHRTTRK, which Kd ([13]; source organism: Yersinia pestis Nepal516) is on record?
A: Its Kd is 13.3 nM.

Q: LPEDIEQMAN was tested. Which Kd [10, 24] did it give?
A: Its Kd is 883 nM.

Q: And the Kd [14, 24]?
A: Its Kd is ≥ 69600 nM.

Q: What about the Kd [11, 24] of the same sequence?
A: The Kd was 2100 nM.
